Source: paper PMC6610143 (Nature Communications, 2019)
No end group written: not given here.

Experiments:
[1] = target: T1, biotin-labeled HA peptide (HA epitope peptide (influenza A virus …, also: biotin label, position not given here)); experiment: SPR; details: both partners purified
T1 chain: YPYDVPDYA

[2] = target: T2, mitoNEET (Mito) fused to mCherry and 1 × HA (synthetic HA epitope tag (influenza A …, UniProt P03437)); details: partners not purified
T2 chain: YPYDVPDYA

[3] = target: T3, mitoNEET (Mito) fused to mCherry and the spaghetti monster HA tag (synthetic HA epitope tag (influenza A …)); experiment: co-localisation of the fluorescent scFv with its tagged target in living cells; details: partners not purified
T3 construct: also called Mito-mCh-smHA; smHA-tagged Mito; source: U2OS, transfected, in living cells; not shown: mCherry, internal (between Mito and smHA), kept
T3 chain: YPYDVPDYA

B1: purified recombinant HA frankenbody fused to GFP (from pET23b-FB-GFP) (scFv, V domains shown)
VH: EVKLVESGGGLVKPGGSLKLSCAASGFTFSSYGMSWVRQTPEKRLEWVATISRGGSYTYYPDSVKGRFTISRDNAKNTLYLQMSSLRSEDTAIYYCARRETYDEKGFAYWGQGTTLTVSS
VL: DIVLTQSPASLTVSLGQRATISCKSSQSLLNSGNQKNYLTWYQQKPGQPPKLLIYWASTRESGIPARFSGSGSGTDFTLNIHPVEEEDAATYYCQNDNSHPLTFGAGTKLEI
notes: also called purified FB-GFP; purified frankenbody; source: E. coli BL21 (DE3) pLysS, purified (HisTrap HP, Superdex 200)
[1]
  Kd: 14.7 ± 7.4 nM

B2: HA frankenbody fused to mEGFP (χ15F11^HA) (scFv, V domains shown)
VH: B1 VH
VL: B1 VL
notes: also called FB-GFP; FB
[2]
  Mito/Bg (mitochondria to background fluorescent intensity ratio): 3.5
[3]
  Mito/Bg (mitochondria to background fluorescent intensity ratio): 16.6
